B1: VP16-JMY^469-558 (other)
chain: EKLQYAVSKETLQMMRAKEICLEQKKHALKEEMQSLQGGTEAIARLDQLESDYYDLQLQLYEVQFEILKCEELLLTAQLESIKRLISEKR
notes: Two-hybrid prey used in yeast and in U2OS cells; also called pVP16-JMY^469-558; JMY-VP16
B2: Lex-JMY^469-558 (other)
chain: B1 chain
notes: Yeast two-hybrid bait; also called pLex-JMY^469-558; not shown: LexA part of bait vector pLex (his)

Key:
G4-p300^611-1257 = G4-p300^611-1257 (yeast, UniProt P04386 1-147; Q09472 611-1257); experiment: cell-based or functional assay
G4-p300^1572-2283 = G4-p300^1572-2283 (yeast, UniProt P04386 1-147; Q09472 1572-2283); experiment: cell-based or functional assay
[1] = target: T1, G4-p300 from residue 1302 to 1572 (yeast, UniProt P04386 1-147; Q09472 1302-1572); experiment: mammalian two-hybrid assay, U2OS cells, pG5-luc reporter
T1 construct: Mammalian two-hybrid bait; also called p300^302-1572 (as printed in the methods)

VP16-JMY^469-558 = target: B1; experiment: yeast two-hybrid, β-galactosidase induction; prey VP16-JMY^469-558

| Binder | relative activity of luciferase to β-galactosidase (pG5-luc reporter, mammalian two-hybrid assay in U2OS cells) (G4-p300^611-1257) | relative activity of luciferase to β-galactosidase (pG5-luc reporter, mammalian two-hybrid assay in U2OS cells) (G4-p300^1572-2283) | binding result [1] | binding result (VP16-JMY^469-558) |
| --- | --- | --- | --- | --- |
| B1 | 4 fold increase | 5 fold increase | no binding | – |
| B2 | – | – | – | binds |

Reference: patent publication US20020028487A1 (UNIVERSITY COURT OF THE UNIVERSITY OF GLASGOW, published 2002)
